Tests used:
Test in all cases: cell-based or functional assay
[1] = target: Her-2 (Human epithelial growth factor 2) on SKBR-3 cells (human) (UniProt P04626)
[2] = target: T1, Her-2 (Human epithelial growth factor 2) on SKBR-3 cells (human, UniProt P04626 23-1255)
[3] = target: T1, Her-2 (Human epithelial growth factor …); remark: listed apart in the source

Molecule: AHNP (peptide)
- IC50, inhibition of proliferation of Her-2 positive cells (SKBR-3), BrdU incorporation [1]: 67000 nM

B1: Peptide 1 (peptide)
peptide: MAVYVHYHK
modifications: not fully specified; V is N-methyl norvaline (positions 3 and 5); cyclized from the lysine side chain to the N-terminus
- fold improvement of EC50 over HRAP, BrdU cell proliferation assay [2]: ~450 fold
- IC50, inhibition of proliferation of Her-2 positive cells (SKBR-3), BrdU incorporation [3]: 520 nM

B2: Peptide D (peptide)
peptide: MVCVVLYDDK
modifications: not fully specified; N-methyl norvaline at positions 4 and 5 (position 2 is Val, per paragraph 127); cyclized from the lysine side chain to the N-terminus
- fold enhancement of EC50 over ANHP, BrdU cell proliferation assay [2]: ~110 fold
- IC50, inhibition of proliferation of Her-2 positive cells (SKBR-3), BrdU incorporation [3]: 640 nM

Reference: patent US20150050211A1 (UNIVERSITY OF SOUTHERN CALIFORNIA, published 2015)
